Test results reported in publication PMC4137058 (The Journal of Cell Biology, 2014).

Molecular target: T1, GST-tagged Sac1 (residues 2-460) (Saccharomyces cerevisiae, UniProt P32368 2-460)
T1 sequence (looked up): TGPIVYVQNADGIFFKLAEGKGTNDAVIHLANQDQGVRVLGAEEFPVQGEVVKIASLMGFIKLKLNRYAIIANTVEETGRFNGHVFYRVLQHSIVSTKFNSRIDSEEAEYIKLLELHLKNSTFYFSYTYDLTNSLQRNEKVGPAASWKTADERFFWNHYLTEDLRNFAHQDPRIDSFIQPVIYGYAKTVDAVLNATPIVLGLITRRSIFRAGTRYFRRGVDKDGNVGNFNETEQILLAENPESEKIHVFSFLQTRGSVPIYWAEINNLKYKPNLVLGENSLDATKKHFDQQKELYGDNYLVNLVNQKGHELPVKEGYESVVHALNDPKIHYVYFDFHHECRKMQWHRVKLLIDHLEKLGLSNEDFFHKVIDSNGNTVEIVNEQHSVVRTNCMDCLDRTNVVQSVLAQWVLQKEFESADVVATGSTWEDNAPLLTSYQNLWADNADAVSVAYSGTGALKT
Experiment: pull-down

Binder | binding result
Vps74 (residues 46-345) (domain or fragment, Saccharomyces cerevisiae, UniProt Q06385 46-345, looked up) NKKIAYDPEESKLRDNINIPTLTLMEEVLLMGLRDREGYLSFWNDSISYALRGCIIIELALRGKIRILDDSARKRFDLSERLIEVIDSSKTGEVLLDETLQLMKNDEPLSISNWIDLLSGETWNLLKINYQLKQVRERLAKGLVDKGVLRTEMKNFFLFDMATHPIADASCKEAIKRRVLSVLVSRNMELSYNEYFPETTSFKIIRTLALICGSYGANVLENVLTTLEYEKRDKAISRAEEIMAQFSQYPFDLEKETELGVSVNLNKEVKEEIENNPGHDLQLEVIAGVFEVFSRMDMLL | binds
Vps74 (Y260S, N263S, E266S, Y274S, and D278S) (domain or fragment, Saccharomyces cerevisiae, UniProt Q06385 46-345, looked up) NKKIAYDPEESKLRDNINIPTLTLMEEVLLMGLRDREGYLSFWNDSISYALRGCIIIELALRGKIRILDDSARKRFDLSERLIEVIDSSKTGEVLLDETLQLMKNDEPLSISNWIDLLSGETWNLLKINYQLKQVRERLAKGLVDKGVLRTEMKNFFLFDMATHPIADASCKEAIKRRVLSVLVSRNMELSYNEYFPETTSFKIIRTLALICGSSGASVLSNVLTTLESEKRSKAISRAEEIMAQFSQYPFDLEKETELGVSVNLNKEVKEEIENNPGHDLQLEVIAGVFEVFSRMDMLL | binds
